From patent US20230250164A1 (AB2 BIO, published 2023)
Positions count from the first letter of the chain named.

T1: IL-18/IL-18BP complex (human, UniProt Q14116 37-193)
T1 construct: In the third screening step: Luminex beads linked to IL-18BP and then complexed to IL-18; also called IL-18 previously complexed to IL-18BP; complex IL-18/IL-18BP
T1 sequence 1: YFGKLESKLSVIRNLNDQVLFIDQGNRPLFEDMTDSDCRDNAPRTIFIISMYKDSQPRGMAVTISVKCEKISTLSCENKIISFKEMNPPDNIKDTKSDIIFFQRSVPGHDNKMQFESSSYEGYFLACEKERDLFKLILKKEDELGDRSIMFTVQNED
T1 sequence 2: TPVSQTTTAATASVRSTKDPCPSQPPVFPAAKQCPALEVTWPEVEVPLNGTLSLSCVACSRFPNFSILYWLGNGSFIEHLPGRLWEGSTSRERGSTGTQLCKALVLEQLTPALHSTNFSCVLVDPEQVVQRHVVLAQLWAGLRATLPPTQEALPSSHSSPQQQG

T2: human interleukin-18 (IL-18), recombinant (human, UniProt Q14116 37-193)
T2 construct: Commercial recombinant human IL-18; also called human IL-18; free IL-18
T2 sequence (looked up): T1 sequence 1

B1: Antibody 107C6 (antibody, V domains shown)
VH: QIQLVQSGPELKKPGETVKLSCRASGYTFTNYGMNWVKQAPGKGLKWMGWINTYSGVPTYADDFKGQFAFSLETSAATAFLQINNLKDEDTATYFCAREGYSTTRSMDYWGQGTSVTVSS
VL: DIVMSQSPSSLAVSAGEKVTMSCKSSQSLLDSRTRKNYLVWYQQKPGQSPKLLIYWASTRGSGVPDRFTGSGSGTDFTLTISSVQAEDLAVYYCKQSYNLRTFGGGTKLEIK
notes: Mouse hybridoma monoclonal antibody; also called clone #107C6
B2: Antibody 108F8 (antibody, V domains shown)
VH: B1 VH with E10D, L11S
VL: B1 VL
notes: Mouse hybridoma monoclonal antibody
B3: Antibody 109A6 (antibody, V domains shown)
VH: EVQLQQSGAELVKPGASVKLSCTASGFKIKDTYIHWVIQRPAQGLEWIGRIDPANGNTIYGSKFQGKATLTADTSSNTAYIHLSSLTSGDSAVYYCAGYVWFAYWGQGTLVTVSA
VL: DVVMTQVPLSLPVSLGDQASISCRSSQRLVHSNGNTYLHWFLQKPGQSPKLLIYTVSNRFSGVPDRFSGSGSGTDFTLKISRVEAEDLGVYFCSQSTLVPWTFGGGTKLEIK
notes: as for B2
B4: Antibody 131B4 (antibody, V domains shown)
VH: B3 VH with L4V, V37L, I38K, A42E, L70I, H82Q, S91T, Y95F
VL: DAVLTQTPLSLPVSLGDQASISCTSSQSLVHSNGNTYLHWYLQKPGQSPKLLIYKVSDRFSGVPDRFSGSGSGTDFTLMITRVEAEDLGVYFCSQSSLVPWTFGGGTKLEVK
notes: as for B2
B5: monoclonal anti-IL-18 antibody clone 131H1 (antibody)
chain 1: QVQLKQSGPGLVQPSQSLSITCTVSGFSLTSYGVHWVRQSPGKGLEWLGVIWSGGSTDYNAAFISRLSISKDNSKSQVFFKMNSLQADDTAIYYCARSYDYDGRGYFDYWGQGTTLTVSS
chain 2: DIQMTQSPASLSASVGETVTITCRASENVYRYLAWYQQRQGKSPQLLVYSAKTLAEGVPSRFSGSGSGTQFSLKINTLQPEDFGTYYCQHHYNTPLTFGAGTKLELK
chain 3: B1 VL with L30F, D31N, R33K, V40A, Y42F, K51E, G61K, R101W
B6: Antibody 132H4 (antibody, V domains shown)
VH: EVKLVESGGGLVKPGGSLKLSCAASGFTFSNYAMSWVRQNPAKRLEWVATISSGGANIYYPDSVKGRFIISRDNARNTLYLQMSSLRSEDTAMYYCARGDYFNHFWFAYWGQGTLVTVSA
VL: DVLMTQTPLSLPVSLGDQASISCRSSQSIVHSNGNTYLEWYLQKPGQSPKFLIYKVSNRFSGVPDRFSGSGSGTDFTLKINRVEAEDLGIYYCFQGSHVPWTFGGGTKLEIK
notes: as for B2
B7: recombinant human IL-18 Binding Protein (IL-18BP) (other)
chain: T1 sequence 2
notes: Biotinylated in the second Luminex screening step; also called human IL-18BP; hIL-18BP

molecular target: T1, IL-18/IL-18BP complex; test: Luminex, third screening step against first
Procedure: (§1) Mice were vaccinated aginst human interleukin-18 using a technology allowing immunization with properly folded proteins. […] Following immunization, B cells were isolated from spleen and hybridized following standard hybridoma technology. […] The screening was performed in 3 sequential and selective steps: […]

Binder	fold inhibition (binding on IL-18 complexed to IL-18BP against binding on IL-18) [fold]
B1	> 500
B2	> 500
B3	> 500
B4	> 500
B5	> 500
B6	> 500

molecular target: T2, human interleukin-18 (IL-18), …; test: Luminex, IL-18 on beads, hybridoma antibody
Procedure: as §1

Binder	fluorescence intensity (monoclonal antibody binding on IL-18) [fluorescence intensity]
B1	26200
B2	25100
B3	25800
B4	24800
B5	24800
B6	23800

molecular target: T1, IL-18/IL-18BP complex; test: Luminex, beads linked to IL-18BP then complexed to IL-18, antibody binding
Procedure: as §1

Binder	fluorescence intensity (monoclonal antibody binding on IL-18 previously complexed to IL-18BP) [fluorescence intensity]
B1	33
B2	45
B3	33
B4	41
B5	24
B6	28

molecular target: T2, human interleukin-18 (IL-18), …; test: free IL-18 ELISA with IL-18BP capture; 400 pg/mL IL-18 in PBS 5% BSA spiked with IL-18BP
Procedure: After that, 20 μl sample volume containing biological fluid or standard is dispensed per microplate well. Non-diluted or diluted biological fluid can be but is not restricted to serum, urine, tear, saliva, bile, sweat, exhalation or expiration, sputum, bronchoalveolar fluid, sebum, cellular, gland, mucosa or tissue secretion, biopsy, homogenized tissue. […] The plates are sealed and then incubated under gentle shaking for free IL-18 capture. […] The microplate wells are the washed extensively with the appropriate buffer and then, 100 μl buffer developing mixture is added to each well. The developing mixture contains a streptavidin-conjugated enzyme such as peroxidase or alkaline phosphatase. […] The resulting reactions are then monitored with a microplate reader at an appropriate nanometer wavelength for absorbance or fluorescence of the produced reagent.

Binder	molar ratio IL-18BP/IL-18 at which free IL-18 is near background [fold]
B7	~15

molecular target: T2, human interleukin-18 (IL-18), …; test: Luminex competition, antibody pre-bound to IL-18 beads, biotinylated IL-18BP as competitor is detected

Binder	fluorescence intensity (IL-18BP binding on IL-18 previously complexed to monoclonal antibody) [fluorescence intensity]
B1	1390
B2	1290
B3	913
B4	1660
B5	1030
B6	1490

molecular target: T2, human interleukin-18 (IL-18), …; test: free IL-18 ELISA with plate-bound IL-18BP as capture; 400 pg/ml IL-18 in PBS with 5% BSA spiked with soluble IL-18BP at 0 to 10000 pg/ml; soluble IL-18BP competes with the capture IL-18BP
Excerpt: Microplates can also be dried in a stabilizing solution allowing storage at room temperature and then be reconstituted by hydration when needed for assay.

Binder	IC50 (read off the curve) [pg/mL]
B7	~2000
